The values that follow come from the array DNA melting data of Ke et al..

This data set can be described thus: melting temperature; melt of duplexes. The conditions noted are these: sodium 0.0675 M; strand 1 µM.
For “CGACGTGCGTAATGTGCTG+CAGCACATACAGCACGTCG ((((((((...((((((((+))))))))...))))))))”, the melting temperature (Tm) is 54 °C.
On to “CGACGTGCTTGATGTGCTG+CAGCACATGGCGCACGTCG ((((((((...((((((((+))))))))...))))))))”, for which the Tm worked out at 47.2 °C.
With “CGACGTGCGTAATGTGCTG+CAGCACATCGAGCACGTCG ((((((((...((((((((+))))))))...))))))))”, the Tm amounted to 53.1 °C.
The value for “CGACGTGCACTATGTGCTG+CAGCACATCCGGCACGTCG ((((((((...((((((((+))))))))...))))))))” was 43.2 °C.
The value for “CGACGTGCTGAATGTGCTG+CAGCACATAATGCACGTCG ((((((((...((((((((+))))))))...))))))))” was 51 °C; that for “CGACGTGCCTGATGTGCTG+CAGCACATGTAGCACGTCG ((((((((...((((((((+))))))))...))))))))” was 49.3 °C; that for “CGACGTGCACGATGTGCTG+CAGCACATTGGGCACGTCG ((((((((.(.((((((((+)))))))).).))))))))” was 56.4 °C.
The result for “CGACGTGCACCATGTGCTG+CAGCACATCCAGCACGTCG ((((((((...((((((((+))))))))...))))))))” reads 42.2 °C; that for “CGACGTGCTACATGTGCTG+CAGCACATGGAGCACGTCG (((((((((.(((((((((+))))))))).)))))))))”, 61.7 °C; that for “CGACGTGCGATATGTGCTG+CAGCACATATGGCACGTCG ((((((((.((((((((((+)))))))))).))))))))”, 56.5 °C.
For the substance “CGACGTGCGAGATGTGCTG+CAGCACATCTTGCACGTCG ((((((((.((((((((((+)))))))))).))))))))”, the Tm was determined as 60.2 °C.
The result for “CGACGTGCGGCATGTGCTG+CAGCACATACGGCACGTCG ((((((((.(.((((((((+)))))))).).))))))))” reads 51.5 °C.
Regarding “CGACGTGCCACATGTGCTG+CAGCACATACAGCACGTCG ((((((((...((((((((+))))))))...))))))))”, the Tm worked out at 48.6 °C.
The value for “CGACGTGCGGAATGTGCTG+CAGCACATCATGCACGTCG ((((((((...((((((((+))))))))...))))))))” was 51.9 °C.
The result for “CGACGTGCACCATGTGCTG+CAGCACATGGAGCACGTCG ((((((((.((((((((((+)))))))))).))))))))” reads 58.8 °C.
The result for “CGACGTGCAAAATGTGCTG+CAGCACATCTCGCACGTCG ((((((((.(.((((((((+)))))))).).))))))))” reads 48.6 °C; that for “CGACGTGCTCCATGTGCTG+CAGCACATTAAGCACGTCG (((((((((..((((((((+))))))))..)))))))))”, 49.4 °C; that for “CGACGTGCACGATGTGCTG+CAGCACATCTCGCACGTCG ((((((((..(((((((((+)))))))))..))))))))”, 50.6 °C.
For the substance “CGACGTGCCTCATGTGCTG+CAGCACATCGAGCACGTCG ((((((((...((((((((+))))))))...))))))))”, the midpoint of thermal melting (Tm) was found to be 50 °C.
Take “CGACGTGCTCAATGTGCTG+CAGCACATATAGCACGTCG (((((((((..((((((((+))))))))..)))))))))”: the Tm came to 51.5 °C.
The result for “CGACGTGCACAATGTGCTG+CAGCACATTAGGCACGTCG ((((((((..(((((((((+)))))))))..))))))))” reads 50.6 °C.
Regarding “CGACGTGCACCATGTGCTG+CAGCACATGCAGCACGTCG ((((((((..(((((((((+)))))))))..))))))))”, the Tm came out at 50.4 °C.
As for “CGACGTGCTGTATGTGCTG+CAGCACATCGTGCACGTCG ((((((((...((((((((+))))))))...))))))))”, the midpoint of thermal melting (Tm) is 46.4 °C.
The result for “CGACGTGCCCGATGTGCTG+CAGCACATGCGGCACGTCG (((((((((..((((((((+))))))))..)))))))))” reads 54.6 °C; that for “CGACGTGCCACATGTGCTG+CAGCACATTCGGCACGTCG (((((((((..((((((((+))))))))..)))))))))”, 53.4 °C; that for “CGACGTGCCAAATGTGCTG+CAGCACATCGGGCACGTCG (((((((((..((((((((+))))))))..)))))))))”, 54.3 °C.
On to “CGACGTGCGTAATGTGCTG+CAGCACATTGGGCACGTCG ((((((((..(((((((((+)))))))))..))))))))”, for which the Tm stood at 55 °C.
The value for “CGACGTGCTTAATGTGCTG+CAGCACATAATGCACGTCG ((((((((.(.((((((((+)))))))).).))))))))” was 51.5 °C; that for “CGACGTGCAAAATGTGCTG+CAGCACATTACGCACGTCG ((((((((..(((((((((+)))))))))..))))))))” was 51.5 °C.
The value for “CGACGTGCCAGATGTGCTG+CAGCACATTCAGCACGTCG ((((((((...((((((((+))))))))...))))))))” was 50.7 °C.
The result for “CGACGTGCTTCATGTGCTG+CAGCACATCGCGCACGTCG ((((((((...((((((((+))))))))...))))))))” reads 46.2 °C; that for “CGACGTGCGTGATGTGCTG+CAGCACATACGGCACGTCG ((((((((...((((((((+))))))))...))))))))”, 51.1 °C.
In the case of “CGACGTGCGAGATGTGCTG+CAGCACATCCAGCACGTCG ((((((((..(((((((((+)))))))))..))))))))”, the Tm was 56.5 °C.
The value for “CGACGTGCAAGATGTGCTG+CAGCACATTTGGCACGTCG ((((((((.(.((((((((+)))))))).).))))))))” was 52.5 °C.
The value for “CGACGTGCACGATGTGCTG+CAGCACATTAAGCACGTCG ((((((((...((((((((+))))))))...))))))))” was 46.5 °C; that for “CGACGTGCGCAATGTGCTG+CAGCACATTGCGCACGTCG (((((((((((((((((((+)))))))))))))))))))” was 67.1 °C.
The value for “CGACGTGCGTCATGTGCTG+CAGCACATTTGGCACGTCG ((((((((...((((((((+))))))))...))))))))” was 48.7 °C.
On to “CGACGTGCTTGATGTGCTG+CAGCACATGAGGCACGTCG ((((((((.(.((((((((+)))))))).).))))))))”, for which the Tm came to 51.6 °C.
The result for “CGACGTGCCTGATGTGCTG+CAGCACATTTGGCACGTCG (((((((((..((((((((+))))))))..)))))))))” reads 55.6 °C; that for “CGACGTGCAATATGTGCTG+CAGCACATGTTGCACGTCG ((((((((((.((((((((+)))))))).))))))))))”, 58.4 °C; that for “CGACGTGCAATATGTGCTG+CAGCACATTGAGCACGTCG ((((((((...((((((((+))))))))...))))))))”, 50.4 °C.
The value for “CGACGTGCGATATGTGCTG+CAGCACATTTTGCACGTCG ((((((((.(.((((((((+)))))))).).))))))))” was 52.5 °C.
With “CGACGTGCCAAATGTGCTG+CAGCACATGTGGCACGTCG ((((((((((.((((((((+)))))))).))))))))))”, the melting temperature (Tm) is 58.5 °C.
For “CGACGTGCAACATGTGCTG+CAGCACATTTCGCACGTCG ((((((((.(.((((((((+)))))))).).))))))))”, the Tm was determined as 49 °C.
The value for “CGACGTGCGTGATGTGCTG+CAGCACATCCGGCACGTCG ((((((((..(((((((((+)))))))))..))))))))” was 55.7 °C; that for “CGACGTGCTATATGTGCTG+CAGCACATTATGCACGTCG ((((((((...((((((((+))))))))...))))))))” was 51.6 °C; that for “CGACGTGCAAGATGTGCTG+CAGCACATGAAGCACGTCG ((((((((...((((((((+))))))))...))))))))” was 52.2 °C.
As to “CGACGTGCGCGATGTGCTG+CAGCACATACCGCACGTCG (((((((((..((((((((+))))))))..)))))))))”, the midpoint of thermal melting (Tm) was found to be 53.8 °C.
Turning to “CGACGTGCATTATGTGCTG+CAGCACATTCAGCACGTCG ((((((((...((((((((+))))))))...))))))))”, the Tm stood at 48.7 °C.
The value for “CGACGTGCCCCATGTGCTG+CAGCACATGCAGCACGTCG ((((((((..(((((((((+)))))))))..))))))))” was 51.9 °C.
With “CGACGTGCTCTATGTGCTG+CAGCACATACTGCACGTCG ((((((((..(((((((((+)))))))))..))))))))”, the Tm was determined as 49.5 °C.
“CGACGTGCGCGATGTGCTG+CAGCACATGGCGCACGTCG ((((((((((.((((((((+)))))))).))))))))))”: the Tm is 62 °C.
The result for “CGACGTGCGTAATGTGCTG+CAGCACATGTCGCACGTCG (((((((((..((((((((+))))))))..)))))))))” reads 56 °C.
The result for “CGACGTGCGTGATGTGCTG+CAGCACATTACGCACGTCG ((((((((((.((((((((+)))))))).))))))))))” reads 60.4 °C; that for “CGACGTGCTATATGTGCTG+CAGCACATGTTGCACGTCG ((((((((.(.((((((((+)))))))).).))))))))”, 52.6 °C; that for “CGACGTGCATTATGTGCTG+CAGCACATGGCGCACGTCG ((((((((...((((((((+))))))))...))))))))”, 48.4 °C.
As for “CGACGTGCCTGATGTGCTG+CAGCACATCGAGCACGTCG ((((((((..(((((((((+)))))))))..))))))))”, the Tm was 55.3 °C.
The value for “CGACGTGCGAAATGTGCTG+CAGCACATTTAGCACGTCG ((((((((.((((((((((+)))))))))).))))))))” was 57.9 °C; that for “CGACGTGCAGAATGTGCTG+CAGCACATTAAGCACGTCG ((((((((..(((((((((+)))))))))..))))))))” was 53.3 °C.
For “CGACGTGCTTAATGTGCTG+CAGCACATACGGCACGTCG ((((((((...((((((((+))))))))...))))))))”, the Tm came to 48.3 °C.
Take “CGACGTGCTTAATGTGCTG+CAGCACATGGAGCACGTCG (((((((((..((((((((+))))))))..)))))))))”: the Tm came to 54.4 °C.
On to “CGACGTGCTAAATGTGCTG+CAGCACATCGTGCACGTCG ((((((((...((((((((+))))))))...))))))))”, for which the Tm is 44.7 °C.
The value for “CGACGTGCAGTATGTGCTG+CAGCACATGGTGCACGTCG (((((((((..((((((((+))))))))..)))))))))” was 53.9 °C; that for “CGACGTGCCCTATGTGCTG+CAGCACATCATGCACGTCG ((((((((...((((((((+))))))))...))))))))” was 46.8 °C.
The result for “CGACGTGCATGATGTGCTG+CAGCACATCTCGCACGTCG ((((((((..(((((((((+)))))))))..))))))))” reads 53.9 °C.
Turning to “CGACGTGCGAAATGTGCTG+CAGCACATGACGCACGTCG (((((((((..((((((((+))))))))..)))))))))”, the Tm is 55 °C.

As a reminder, the Tm is the temperature at which the thermal transition is half complete.
